According to patent publication US20250326813A1 (ELPIS BIOPHARMACEUTICALS, published 2025):

What was measured:
[1] = molecular target: T1, human IL2Rβ Fc fusion protein (human, UniProt P14784 27-239); experiment: ELISA on coated receptor-Fc, anti-His detection; grade by OD450 (medium: 0.7-1.5)
T1 construct: also called ILR2β; CD122; not shown: Fc part
T1 sequence (looked up): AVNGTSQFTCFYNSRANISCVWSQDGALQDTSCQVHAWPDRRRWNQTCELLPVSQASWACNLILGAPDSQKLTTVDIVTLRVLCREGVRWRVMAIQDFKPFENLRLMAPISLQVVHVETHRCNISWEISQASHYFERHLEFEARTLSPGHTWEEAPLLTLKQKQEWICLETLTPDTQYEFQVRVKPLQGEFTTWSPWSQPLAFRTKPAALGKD
Procedure: (§1) Mammalian cell-produced agonists were characterized for their binding activities to respective IL2Rβ and IL2Rα receptors by ELISA. Briefly, 384 well plate was immobilized with human IL2Rα and IL2Rβ Fc fusion proteins at a final concentration of 2 μg/mL in 1× PBS in total volume of 25 μL per well. The plate was incubated overnight at 4° C. and blocked with 80 μL of superblock per well for 1 hour. The purified clones were added to IL2Rα or IL-2Rβ wells in parallel in duplicates as a titration, with the highest concentration of 1 μM, followed by a 10 point 5× serial dilution of the clones. The binding activity was detected by adding 25 μL of anti-His HRP diluted at 1:5000 in 1× PBST. In between each step, the plate was washed three times with 1× PBST using a plate washer. The plate was then developed with 25 μL of TMB substrate for five minutes and stopped by adding 25 μL of 2N sulfuric acid. The plate was read at OD450 nm Biotek plate reader and the bar graph at 1 μM of IL2 was generated with Prism 8.1 software (FIG. 2).

[2] = molecular target: T2, human IL2Rα Fc fusion protein (human, UniProt P01589 22-213, limits assumed); experiment: as above
T2 construct: also called CD25; not shown: Fc part
T2 sequence (looked up): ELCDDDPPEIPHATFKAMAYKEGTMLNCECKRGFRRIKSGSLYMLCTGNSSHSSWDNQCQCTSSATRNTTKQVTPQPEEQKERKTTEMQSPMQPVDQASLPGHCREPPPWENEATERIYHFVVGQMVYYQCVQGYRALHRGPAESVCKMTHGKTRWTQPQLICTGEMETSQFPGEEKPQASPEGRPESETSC
Procedure: as §1

[3] = molecular target: T1, human IL2Rβ Fc fusion protein; experiment: ELISA, single concentration, anti-flag detection, E. coli-produced clone
Procedure: (§2) Supernatants containing engineered IL2 mutants were assessed with sandwich ELISA assay to screen for IL2Rα binding. Briefly, 96-well plate was immobilized with human Fc and human IL2Rα, respectively, at a final concentration of 2 μg/mL in 1× PBS in total volume of 50 μL per well. The plate was incubated overnight at 4° C. followed by blocking with 200 μL of superblock per well for 1 hour. 100 μl of supernatant was added to both Fc and IL2Rα immobilized wells and incubated for 1 hour with shaking. The engineered IL2 mutant binding was detected by adding 50 μL of anti-Flag HRP diluted at 1:5000 in 1× PBST. In between each step, the plate was washed three times with 1× PBST in a plate washer. The plate was then developed with 50 μL of TMB substrate for five minutes and stopped by adding 50 μL of 2N sulfuric acid. The plate was read at OD450 nm using a Biotek plate reader and the binding and selectivity was analyzed.
as §2, with “Single clones were next screened for IL2Rβ binding. IL2Rβ binding screening ELISA was developed for the identification of individual” for “Supernatants containing”, “mutant.” for “mutants were assessed with sandwich ELISA assay to screen for IL2Rα binding.”, “IL2Rβ,” for “IL2Rα,”, “IL2Rβ” for “IL2Rα”
(§3) To further triage, the engineered IL2 clones with unique sequences were produced in E. coli. In short, the glycerol stock of each engineered agonist clone was inoculated into TB medium for overnight growth. The next day, cells from the overnight culture were inoculated into TB medium and grown to a cell density of OD₆₀₀ between 0.6-0.8. IPTG was added to a final concentration of 1 mM to induce the expression during culture at 30° C. overnight. The supernatant was collected by centrifugation.

[4] = molecular target: T2, human IL2Rα Fc fusion protein; experiment: as above
Procedure: as §2
as §2, with “Single clones were next screened for IL2Rβ binding. IL2Rβ binding screening ELISA was developed for the identification of individual” for “Supernatants containing”, “mutant.” for “mutants were assessed with sandwich ELISA assay to screen for IL2Rα binding.”, “IL2Rβ,” for “IL2Rα,”, “IL2Rβ” for “IL2Rα”
as §3

[5] = molecular target: T1, human IL2Rβ Fc fusion protein; experiment: SPR (Biacore T200), receptor captured on Protein A chip
Procedure: (§4) The assay was run with Biacore T200 control software version 2.0. For each cycle, 1 μg/mL of human IL2Rβ or IL2Rα was captured for 60 seconds at flow rate of 10 μL/min on flow cell 2 in 1× HBSP buffer on Protein A sensor chip. 100 nM and 20 nM of HIS tag purified engineered IL2 mutant was injected onto both reference flow cell 1 and IL2Rβ or IL2Rα captured flow cell 2 for 150 seconds at flow rate of 30 μL/min followed by washing for 300 seconds. The flow cells were then regenerated with Glycine pH 2 for 60 seconds at a flow rate of 30 μL/mins. The kinetics data was analyzed with Biacore T200 evaluation software 3000. The specific binding response unit was derived from subtraction of binding to reference flow cell 1 from target flow cell 2.

[6] = molecular target: T2, human IL2Rα Fc fusion protein; experiment: SPR (Biacore T200), receptor captured on Protein A chip, IL2 at 100 nM and 20 nM
Procedure: as §4

[7] = molecular target: T1, human IL2Rβ Fc fusion protein; experiment: ELISA: human IL2Rβ Fc fusion coated at 2 µg/mL, purified His-tagged IL2 titrated from 1 µM in 5x steps, anti-His HRP, OD450
Procedure: as §1

[8] = molecular target: T1, human IL2Rβ Fc fusion protein; experiment: SPR (Biacore T200), receptor captured on Protein A chip, IL2 at 100 nM and 20 nM
Procedure: as §4

[9] = molecular target: T1, human IL2Rβ Fc fusion protein; experiment: ELISA on coated receptor-Fc, anti-His detection, single point 1 µM
Procedure: Back-mutations were characterized for their binding activities to IL2Rβ and IL2Rα receptors by ELISA. Briefly, 384 well plate was immobilized with human IL2Rα and IL2Rβ Fc fusion proteins at a final concentration of 2 μg/mL in 1× PBS in total volume of 25 μL per well. The plate was incubated overnight at 4° C. and blocked with 80 μL of superblock per well for 1 hour. […] The IL2 mutant binding was detected by adding 25 μL of anti-His HRP diluted at 1:5000 in 1× PBST. In between each step, the plate was washed three times with 1× PBST using a plate washer. […] The plate was then developed with 25 μL of TMB substrate for five minutes and stopped by adding 25 μl of 2N sulfuric acid. The plate was read at OD450 nm Biotek plate reader (Table 6) and the data was analyzed with Prism 8.1 software to generate bar graph (FIG. 5).

B1: EP565, mammalian cell-produced, with F35L, R38D and F42R (ligand)
chain: APASSSTKKTQLQLEHLLLDLQMILNGINNYKNPLLTDMLTRKFYMPKKATELKHLQCLEEELKPLEEVLNLAQSKNFHLRSRQLISNMNGIILKLKGSETTFMCEYADETATIVEFLNRWITFSQSIISTLT
notes: His-Flag tag not in the parts; also called 2021EP22-F10
[1]
  OD450: 0.7 to 1.5 od
[2]
  OD450: 0.7 to 1.5 od

B2: EP567 (clone 2021EP21-C04), E. coli-produced (ligand)
chain: APASSSTKKTQLQLEHLLLDLQMILNGINNYKNPKLTRMLTFKFYMPKKATELKHLQCLEEELKPLEEVLNLAQSKNFHLSLREPIGNIVTSVRELKGSETTFMCEYADETATIVEFLNRWITFSQSIISTLT
[3]
  OD450 nm: 0.068 OD450
[4]
  OD450 nm: 0.05 OD450
[5]
  binding result: no binding (tested: Rmax < 5RU; 100 nM and 20 nM)
[6]
  Kd: 188 nM

B3: EP596, IL2Rβ enhanced binding agonist (ligand)
chain: APASSSTKKTQLQLEHLLLDLQMILNGINNYKNPLLTDMLTRKFYMPKKATELKHLQCLEEELKPLEEVLNLAQSKNFHLTARDAIDNINVIVQELKGSETTFMCEYADETATIVEFLNRWITFSQSIISTLT
notes: Control in SPR and ELISA
[7]
  EC50 (read off the curve): ~1 nM
[8]
  Kd: 1.03 nM
[9]
  Average OD (450 nm): 1.63 OD450
